Test results from PMC9063426, “MAP kinases differentially bind and phosphorylate NOS3 via two unique NOS3 sites” (FEBS Open Bio, 2022).
“Also recorded” adds a separate entry of the source.

Columns and labels:
NOS3 [1] = test: Oxyhemoglobin assay of NO production by kinase-treated NOS3; format: biochemical, human; conditions: oxyHb assay, 2.5 µM NOS3 with ERK2 14 nM (N = 10), p38α 14 nM (N = 4), JNK1α1-GST 63 nM (N = 3) or PKA 14 nM (N = 4), 30 min; versus untreated NOS3
Method: (§1) Active (HIS‐NOS3) was incubated alone or with individual kinases (ERK2, p38α, JNK1α1, and PKA) in 100 µL reaction buffer (20 mM HEPES, 0.5 mM DTT, 5 mM MgCl2, 0.5 mM ATP, and 10% glycerol at a pH of 7.4). The reactions were performed at 22‐25 °C for up to 1 h, and for the examination of nitric oxide activity, samples were incubated on ice for the immediate detection of NO via the oxyhemoglobin to methemoglobin assay (see below). For immunoblotting analysis to examine phosphorylation, kinase samples were quenched with 2× sample buffer spiked with 25 mM DTT and heated to 95 °C for 5 min. Boiled samples (at equal volumes) were electrophoresed and transferred to PDVF for immunoblot staining.
The oxyhemoglobin assay (oxyHb assay) is a spectroscopic method that measures the oxidative reaction of oxyhemoglobin at 421 nm (oxyHb) and methemoglobin (metHb) at 401 nm. Kinase assay reactions quenched on ice were used to measure NO synthesis and consumption. All oxyHb reactions were performed at 25 °C in a BioTek 96‐well UV‐visible spectrophotometer. […] Absorbance at 401 nm and 421 nm were read for 1 m at 15‐s intervals. […] Measurements were recorded for 10 min at 15‐s intervals.
To calculate NOS3 activity, the change in absorbance/unit time was divided by the extinction coefficient (ε401‐421 = 77 200 M ^−1cm^−1 (ε401 = 38 600 M ^−1cm^−1)). […]

NOS3 (bovine) = test: BLI binding of JNK1α1 to full-length NOS3
Method: Biolayer interferometry (BLI) experiments were performed on a FortéBio (Menlo Park, CA) Octet QK biosensor using streptavidin (SA) sensors. Assays were performed in opaque 96‐well microplates at 25 °C. All volumes were 200 μL. Active GST‐JNK1α1 (SignalChem) was biotinylated by amine crosslinking to NHS‐LC‐LC‐biotin (succinimidyl‐6‐[biotinamido]‐6‐hexanamidohexanoate) (Thermo Fisher, Waltham, MA, USA). Reactions were performed at a 5 : 1 molar ratio of biotin to protein for 30 min at room temperature followed by separation of protein from free biotin by passage over a desalting column. Biotinylated JNK1α1 was loaded onto sensors for 300 s, which was sufficient to saturate them. Baseline was established by dipping sensors into binding buffer (50 mM Tris, pH 7.4, 10 mM NaCl, 10% glycerol, 0.01% Tween‐20) prior to moving sensors to wells containing varying concentrations of serially diluted NOS3 in the same buffer. Association was measured for 300 s, after which sensors were moved to wells containing buffer only and dissociation was monitored for another 300 s. […] Total binding was used for analysis as nonspecific binding measured by exposing sensors without ligand to analyte was negligible at all NOS3 concentrations used; that is, total binding was effectively specific binding due to very low nonspecific binding. […]

NOS3 [2] = test: In vitro kinase assay with NOS3, phospho-specific immunoblotting; format: biochemical, human; conditions: active kinases with NOS3, 5 and 60 min, immunoblot with anti-pS114
Method: as §1
All samples were loaded at equal volumes on 3–8% gradient tris‐acetate gels. All gels were transferred to PVDF membranes and transferred for either 2 h at 40V or for 20V overnight. Membranes were blocked with one block (Li‐Cor Biosciences) for 30 m and incubated with respective antibodies (at manufacturers recommend concentrations for immunoblotting, 1 : 500 for the anti‐pS600‐NOS3) overnight at 4 °C. Blots were brought to RT for 30 m and washed 3× with 1X TBST for 10 m, probed with a fluorometric secondary antibody (Li‐Cor IRDye®) for 1 h, and washed before visualizing with a Li‐Cor Odyssey.

NOS3 [3] = test: TCSPC fluorescence lifetime, conformation of NOS3; conditions: FMN excited at 473 nm, detected at 525 nm; NOS3 holoenzyme
Method: Time‐resolved intensity decays were recorded using time‐correlated single‐photon counting fluorescence lifetime spectrometry (TCSPC FLT) to determine whether phosphorylation by JNK1α1 changes the conformation of NOS3.

NOS1 = test: BLI binding of MAP kinases to NOS1; set-up: species or system bovine; conditions: purified active JNK1α1

B1: mitogen‐activated protein kinase 8 (protein)
chain: MSRSKRDNNFYSVEIGDSTFTVLKRYQNLKPIGSGAQGIVCAAYDAILERNVAIKKLSRPFQNQTHAKRAYRELVLMKCVNHKNIIGLLNVFTPQKSLEEFQDVYIVMELMDANLCQVIQMELDHERMSYLLYQMLCGIKHLHSAGIIHRDLKPSNIVVKSDCTLKILDFGLARTAGTSFMMTPYVVTRYYRAPEVILGMGYKENVDLWSVGCIMGEMVCHKILFPGRDYIDQWNKVIEQLGTPCPEFMKKLQPTVRTYVENRPKYAGYSFEKLFPDVLFPADSEHNKLKASQARDLLSKMLVIDASKRISVDEALQHPYINVWYDPSEAEAPPPKIPDKQLDEREHTIEEWKELIYKEVMDLEERTKNGVIRGQPSPLAQVQQ
modifications: active (phosphorylated) form; biotinylated by amine crosslinking to NHS-LC-LC-biotin, 5 : 1 molar ratio of biotin to protein; left off: GST, end not stated, kept
notes: c-Jun N-terminal kinase
- NO production / NOS3 activity (NOS3 [1]): do not significantly change NO production; also recorded: did not alter in vitro NOS3 activity
- Kd (NOS3 (bovine); 400 nM trace eliminated from fit): 18 nM
- kon (NOS3 (bovine); BLI, active GST-JNK1α1 ligand, NOS3 analyte, 25 °C, pH 7.4, global one-state fit): 4106 M⁻¹ s⁻¹
- phosphorylation of NOS3 at S114 (NOS3 [2]): predominantly phosphorylated NOS3 at S114; also recorded: phosphorylates S114; also recorded: easily detected when compared to ERK2
- conformation of NOS3 (fluorescence decay) (NOS3 [3]): no significant change in conformation; also recorded: did not differ significantly from that of unphosphorylated NOS3; also recorded: did not meaningfully change the confirmation of NOS3
- binding to NOS1 (NOS1): No evidence of JNK1α1 binding to NOS1 beyond nonspecific binding; also recorded: no binding could be detected
